According to the supplement of paper PMC7877785:
± gives the uncertainty stated by the source.

Experiment: self-splicing fitness, log relative to wild type (ln ratio); higher = more splicing; Tetrahymena group I intron in knt gene, E. coli kanamycin selection, DiMSum; sequences stand for … in CUCUCU…GGAGGGAAAAGUUAUCAGGCAUGCACCUGGUAGCUAGUCUUUAAACCAAUAGAUUGCAUCGGUUUAAAAGGCAAGACCGUCAAAUUGCGGGAAAGGGGUCAACAGCCGUUCAGUACCAAGUCUCAGGGGAAACUUUGAGAUGGCCUUGCAAAGGGUAUGGUAAUAAGCUGACGGACAUGGUCCUAACCACGCAGCCAAGUCCUAAGUCAACAGAUCUUCUGUUGAUAUGGAUGCAGUUCACAGACUAAAUGUCGGUCGGGGAAGAUGUAUUCUUCUCAUAAGAUAUAGUCGGACCUCUCCUUAAUGGGAGCUAGCGGAUGAAGUGAUGCAACACUGGAGCCGCUGGGAACUAAUUUGUAUGCGAAAGUAUAUUGAUUAGUUUUGGAGUACUCGUGGUCG
Method in brief: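 Pooled colonies went to amplicon sequencing on an Illumina HiSeq 2500 after six replicate transformations. The plates were LB agar with 100 μg/mL carbenicillin, 50 μM IPTG and 0.2% rhamnose, with or without 25 μg/mL kanamycin, incubated overnight at 37°C or 30°C. The E. coli BL21(DE3) library had all eight P1ex-region intron nucleotides randomised, the intron placed in the knt kanamycin-resistance gene on pET-22b(+). DiMSum fitness is the error-weighted combination of replicate fold changes, kanamycin against none, normalised to wild type.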

Row | Sequence | self-splicing fitness (ln) (30 °C) | self-splicing fitness (ln) (37 °C)
1 | GAGAAGCAAUAUUACGAUUG | -2.76 ± 0.22 | -1.49 ± 0.23
2 | AAUUAGCAAUAUUACGGCAC | -1.11 ± 0.16 | -0.154 ± 0.21
3 | ACGAAGCAAUAUUACGUUGG | -3.56 ± 0.16 | -2.38 ± 0.17
4 | GUUAAGCAAUAUUACGAAAU | -1.41 ± 0.16 | -2.16 ± 0.24
5 | GCGGAGCAAUAUUACGAAUA |  | -3.02 ± 0.4
6 | UGCAAGCAAUAUUACGAGCU | -0.536 ± 0.089 | -0.0945 ± 0.1
7 | CGAAAGCAAUAUUACGAGUC | -2.98 ± 0.18 | -2.22 ± 0.35
8 | UGACAGCAAUAUUACGUACG | -0.78 ± 0.071 | -0.016 ± 0.083
9 | GGGGAGCAAUAUUACGGACA |  | -1.12 ± 0.2
10 | CACCAGCAAUAUUACGGAUA | -1.42 ± 0.065 | -1.18 ± 0.069
11 | GCCUAGCAAUAUUACGCCCC | -0.575 ± 0.27 | 0.517 ± 0.49
12 | GCCUAGCAAUAUUACGCGGU | -4.03 ± 0.28 | -3 ± 0.26
13 | GAUAAGCAAUAUUACGCUCU | -2.11 ± 0.18 | -0.116 ± 0.2
14 | AAGAAGCAAUAUUACGAUAU | -1.66 ± 0.11 | -0.399 ± 0.12
15 | GCAAAGCAAUAUUACGAGAU | -3.64 ± 0.16 | -2.19 ± 0.12
16 | GCCUAGCAAUAUUACGUAAC | -0.911 ± 0.17 | -0.248 ± 0.2
17 | UGAGAGCAAUAUUACGACUA | -1.47 ± 0.22 | -1.64 ± 0.21
18 | UAUAAGCAAUAUUACGAAAU | -3.45 ± 0.22 | -3.24 ± 0.33
19 | AGUUAGCAAUAUUACGGAGU | -3.29 ± 0.3 | -1.3 ± 0.2
20 | UGCAAGCAAUAUUACGAUUA | -0.19 ± 0.077 | 0.163 ± 0.092
21 | CCUUAGCAAUAUUACGACAU | -3.677 ± 0.028 | -2.85 ± 0.043
22 | UACUAGCAAUAUUACGCCCC | -2.19 ± 0.41 | -1.18 ± 0.43
23 | CGUCAGCAAUAUUACGGCAA | -1.75 ± 0.14 | -1.89 ± 0.13
24 | ACUUAGCAAUAUUACGACAC | -2.03 ± 0.14 | -0.762 ± 0.2
25 | UAUUAGCAAUAUUACGAGAU |  | -2.01 ± 0.34
26 | CUGUAGCAAUAUUACGUCCU | -3.57 ± 0.4 | 
27 | CCUCAGCAAUAUUACGACAA | -1.92 ± 0.17 | -2.31 ± 0.25

Row | Sequence | self-splicing fitness (ln) (30 °C) | self-splicing fitness (ln) (37 °C)
28 | ACAUAGCAAUAUUACGACUC | -0.657 ± 0.086 | -0.29 ± 0.13
29 | GCAGAGCAAUAUUACGUCUU | -0.897 ± 0.12 | -2.22 ± 0.21
30 | CGUAAGCAAUAUUACGCGAU | -3.53 ± 0.2 | -1.98 ± 0.18
31 | CCCAAGCAAUAUUACGAGCU | -4.17 ± 0.19 | -2.44 ± 0.21
32 | GCCGAGCAAUAUUACGGAUC | -0.703 ± 0.074 | -0.376 ± 0.11
33 | UGCUAGCAAUAUUACGAUAC | -2.57 ± 0.28 | -1.93 ± 0.28
34 | AGGGAGCAAUAUUACGCCUU | -3.04 ± 0.36 | 
35 | CGUGAGCAAUAUUACGAGUU | -3.88 ± 0.47 | -3.72 ± 0.36
36 | GACCAGCAAUAUUACGCUUU | -0.00419 ± 0.078 | -0.213 ± 0.1
37 | AGACAGCAAUAUUACGGCUC | -2.59 ± 0.15 | -1.02 ± 0.13
38 | AUCGAGCAAUAUUACGUCCG | -3.17 ± 0.31 | -2.94 ± 0.44
39 | GACUAGCAAUAUUACGUACU | -1.13 ± 0.094 | -0.372 ± 0.14
40 | AUUCAGCAAUAUUACGCUGG | -3.36 ± 0.17 | -2.98 ± 0.26
41 | UGAAAGCAAUAUUACGGGUC |  | -2.71 ± 0.25
42 | UGUAAGCAAUAUUACGUGCA | -0.738 ± 0.12 | -0.62 ± 0.11
43 | GGCCAGCAAUAUUACGUGCA | -0.734 ± 0.078 | -0.196 ± 0.074
44 | GGCAAGCAAUAUUACGCUCC | -2.93 ± 0.44 | -1.07 ± 0.36
45 | AGCUAGCAAUAUUACGAAAC |  | -1.95 ± 0.43
46 | CCCAAGCAAUAUUACGUCUC | -2.71 ± 0.15 | -2.25 ± 0.26
47 | CUGCAGCAAUAUUACGUUAG | -2.97 ± 0.1 | -1.19 ± 0.1
48 | AACGAGCAAUAUUACGCCCG | -1.98 ± 0.32 | -0.148 ± 0.33
49 | AGUCAGCAAUAUUACGGGUG | -1.82 ± 0.084 | -0.948 ± 0.12
50 | CGCCAGCAAUAUUACGGAAG | -1.44 ± 0.064 | -0.526 ± 0.077
51 | GGGGAGCAAUAUUACGUCCU | -3.89 ± 0.4 | 
52 | GAUAAGCAAUAUUACGCCCC | -2.27 ± 0.32 | -1.43 ± 0.33
53 | CAACAGCAAUAUUACGGCCC |  | -2.06 ± 0.33
54 | GAGCAGCAAUAUUACGCGGG | -2.52 ± 0.21 | -1.96 ± 0.23

Row | Sequence | self-splicing fitness (ln) (30 °C) | self-splicing fitness (ln) (37 °C)
55 | UAAUAGCAAUAUUACGAUUU | -2 ± 0.11 | -1.13 ± 0.11
56 | UAGCAGCAAUAUUACGCCCU | -0.738 ± 0.087 | -0.863 ± 0.11
57 | AAGUAGCAAUAUUACGAGGU | -1.94 ± 0.13 | -1.97 ± 0.17
58 | AGCGAGCAAUAUUACGACUA | -0.953 ± 0.37 | -1.03 ± 0.31
59 | GAGAAGCAAUAUUACGCGAU | -2.81 ± 0.27 | -2.48 ± 0.33
60 | AGUAAGCAAUAUUACGUGAC |  | -2.19 ± 0.2
61 | AUGUAGCAAUAUUACGGGGG | -3.28 ± 0.27 | -2.47 ± 0.37
62 | GCCGAGCAAUAUUACGUACU | -2.15 ± 0.17 | -1.23 ± 0.18
63 | GCGUAGCAAUAUUACGUUGG | -2.62 ± 0.24 | -2.96 ± 0.32
64 | AGAGAGCAAUAUUACGAGUU | -4.21 ± 0.3 | -2.41 ± 0.2
65 | CACGAGCAAUAUUACGCAAA | -3.96 ± 0.33 | -2.08 ± 0.19
66 | UAAAAGCAAUAUUACGCCUC | -2.82 ± 0.43 | 
67 | AUGAAGCAAUAUUACGUGAG | -1.27 ± 0.083 | -0.0834 ± 0.12
68 | AAGAAGCAAUAUUACGGAAA | -2.17 ± 0.19 | -1.72 ± 0.2
69 | GUCCAGCAAUAUUACGAUAC | -0.876 ± 0.082 | -0.0588 ± 0.099
70 | UGAAAGCAAUAUUACGACAU | -1.26 ± 0.013 | -0.435 ± 0.032
71 | AGUGAGCAAUAUUACGACGA | -2.44 ± 0.21 | -1.13 ± 0.24
72 | GAGCAGCAAUAUUACGCAUG | -3.03 ± 0.34 | -1.67 ± 0.31
73 | CCAAAGCAAUAUUACGGUGC | -4.01 ± 0.16 | -2.19 ± 0.13
74 | UGUGAGCAAUAUUACGGGUU | -3.22 ± 0.31 | -1.59 ± 0.28
75 | GAGAAGCAAUAUUACGAGGU | -3.47 ± 0.33 | -3.9 ± 0.46
76 | GAGCAGCAAUAUUACGGUCC | -2.93 ± 0.18 | -1.63 ± 0.17
77 | ACGCAGCAAUAUUACGGGUA | -2.46 ± 0.11 | -1.37 ± 0.087
78 | UCGUAGCAAUAUUACGUGGU | -3.45 ± 0.4 | -2.67 ± 0.48
79 | UUCUAGCAAUAUUACGAUUG | -3.24 ± 0.31 | -1.94 ± 0.21
80 | UAGUAGCAAUAUUACGAACC |  | -2.97 ± 0.33
